The values that follow come from doi:10.1101/134072.

“And” between values parts separate entries of the source, which are not always exact repeats. Equal entries are not always repeated.

What is called stoichiometry N is a count of units in the complex or per binding partner.

The target of assay [1] is T1, TDP-43 N-terminal domain (TDP-43^NTD), residues 1-80, no tags, Q13148.
T1 chain: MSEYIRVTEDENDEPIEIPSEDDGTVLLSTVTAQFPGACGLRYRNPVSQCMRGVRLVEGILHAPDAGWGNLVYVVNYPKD
Description: SEC. To be noted: remark: other sources report otherwise.

For assay [2], the target named is T1, TDP-43 N-terminal domain (TDP-43^NTD), …. Description: AUC. To be noted: remark: other sources report otherwise.

B1: TDP-43 N-terminal domain (TDP-43^NTD), residues 1-80, no tags, Q13148 1-80 (domain or fragment)
chain: T1 chain
With B1, the stoichiometry N in assay [1] was 2 and 4. For the same molecule, in assay [2], the percent dimer at 2-5 μM was 30%; the percent tetramer at 20 μM is 10%; the stoichiometry N was 2 and 4.
